Assay: soluble on expression in E. coli; label from the status in PepcDB or PDB records

Sequence | soluble on expression in E. coli
MHHHHHHSSGVDLGTENLYFQSMARPATVLGAMEMGRRMDAPTSAAVTRAFLERGHTEIDTAFVYSEGQSETILGGLGLRLGGSDCRVKIDTKAIPLFGNSLKPDSLRFQLETSLKRLQCPRVDLFYLHMPDHSTPVEETLRACHQLHQEGKFVELGLSNYAAWEVAEICTLCKSNGWILPTVYQGMYNAITRQVETELFPCLRHFGLRFYAFNPLAGGLLTGKYKYEDKDGKQPVGRFFGNTWAEMYRNRYWKEHHFEGIALVEKALQAAYGASAPSMTSATLRWMYHHSQLQGAHGDAVILGMSSLEQLEQNLAAAEEGPLEPAVVDAFNQAWHLVAHECPNYFR | soluble
MADKLDEIIDKVASGQRKKDTIEDTEEEGTRKRKIEQFEDIERPNELSGFKKQKIEENSEIHAEETEESVEAQMVMKKPSEEPELKRRKILIHMEPSITETNPMRIWTVADDLALLTAVAHVQCIRFIHNSLTFSRKFTFSDVEERYCQLMFDEEISKSAKVRLDAMPHRLKAQIEARTPFTRNEERTLMELAENQLKNARKERQDVENHTVLTILHFKKILDGNRQSFHKSRTPQVLSDHYRRIKGYRSEQGNNYNWQALEALTDGNTMDFDINAPLQAARSRYAAISRRPALSGILNRFKTSGSVPDNAIAMINGQFLQYAMTGKSVTMGRASLNEKIDIDLSKEGPATKVLEGRRQLFPVNKR | soluble
MSLTDLFAREPYAPLAERLRPHTLDDVVGQEHLIGEGKPLRVAVEGGKPHSMLLWGPPGVGKTTLARILAQSFNAQFLPVSAVFSGVKDIREAIDKAEIALQQGRATILFVDEVHRFNKAQQDAFLPHVESGLLTFIGATTENPSFEVNPALLSRAQVYVLQPLSSDDLKKLIAKVLALPEYQEFTIETDAQKLLVNTVDGDARRLLNLLEQLLRAADTRRLKNLTAEFLADSLGAQIRRFDKGGESFYNQISALHKSVRGSHPNAALYWFCRMLDGGTDPRYLARRIVRIAWEDIGLADPRALQIANDAAATFERLGSPEGELALAQAVLYLAAAAKSNAGYKAYNQMRHFVKENASDEVPVHLRNAPTKLMKELGYGREYRYAHDEPNAYAAGESYMPDGLDEPDFYQPVPRGLEIKIGEKLAWLKSLDEEVLKAEGHHHHHH | soluble
MSRRYDTIKHLGEGQFANVYLAQDLESGECVAIKKIKLGSREEAKDGINRTAIREIKLLKEIHHDNIIGLRDVIGHRTSIQLVFDFMDTDLEHVIKDKEIILMPAHIKNITMQMLLGLEFLHVHWILHRDLKPNNLLMNKMGRVKLTDFGLARFFGSPNRNYTHQVVTRWYRAPELLFGARSYGVGIDIWSVGCIIAELLLRNPIFPGESDIDQLVKIFNILGCPTPETWPNMTEMNSYVIIKPQTEYMALNYYFSAAPQDLLDLMAGMWTFDPIKRLTCTQSLQMEYFRTQPFCCLDEELPLPKKQQPQKRSRRLDDDGTRPVRRLNFD | not soluble
MLMRQVLEEACLKSGFEVNSHRLQTQSRKPIDSSLPFRLTGLANNATLEMTQKEAVSENTIIELAIQTASGARHQKKVGVNQMLLDALKSFTSEFKEDLATTIDGSVPCIVYMNKRYTGAELAVNSLSSLGVASGKCLIRHMRVKLSDQELATMQAKLQEENERKKALDVNFVKLKAENAERDRLERLRQEAFDKDKESREKREQEQLRALIPEPASNIQDSTVMDTTESQQRDVLQEVPEQNPNSWSFDGPAFSRQVPQNTMRMEELNRLLERVDHSLATPAVESRMDAMVNALADGGRISLAEVRTRADVAMEQEQEEDPVEVFANPCDRQAVIYKKRARVQTTDEPMETEEFFEVGIEDVRNMQKDLRKAVRDQTQASFISKEYLAKKNRQLKLEAYKHTVIRISIGEHILQVYFNTAEQSSNLDLFLNNVLTRSGWKLMFTNLKVVTNELKNFVDIELAPKSTLIASFGGQTVNAADVVHNVIEVTPEKADAMSADWLSLNKTFMPFNSTVNDDRKQKRPQFQSSSSSSHSGPPAKSAMPKWLQTGKK | not soluble
MSLYNFLGKELKSPLIIGSGPLTYSAAGCKILSDAGAGAVVTKTIRKERAINPAPHMVRNTANALLNNEKWTDFEPEQWIDFEIPQMKRDGTVCIASIGHTIEESSELVEKVANAGADFIELVSYDYRDLIPMLKDAKERVNIPVIVKLPPMIDEIGDFAKKLEEAGADAITACDSVGPAFRIDIETGQPLLGGNGIGYLSGETIKPITLQRIYEIKKQVNIPIIGLGGCVSGDDALEMIMAGADFVGICSVVILKGAQVISKIHDDLKSNLNRLGYNTIENACGIVHNHMGDVNEREGHHHHHH | soluble
MGHHHHHHSHQQENGSMFSLITWNIDGLDLNNLSERARGVCSYLALYSPDVIFLQEVIPPYYSYLKKRSSNYEIITGHEEGYFTAIMLKKSRVKLKSQEIIPFPSTKMMRNLLCVHVNVSGNELCLMTSHLESTRGHAAERMNQLKMVLKKMQEAPESATVIFAGDTNLRDREVTRCGGLPNNIVDVWEFLGKPKHCQYTWDTQMNSNLGITAACKLRFDRIFFRAAAEEGHIIPRSLDLLGLEKLDCGRFPSDHWGLLCNLDIIL | not soluble
SENLYFQGSASATCERCKGGFAPAEKIVNSNGELYHEQCFVCAQCFQQFPEGLFYEFEGRKYCEHDFQMLFA | soluble
MIITEKRHELILEELSHKDFLTLQELIDRTGCSASTIRRDLSKLQQLGKLQRVHGGAMLKENRMIEANLTEKLATNLDEKKMIAKIAANQINDNECLFIDAGSSTLELIKYIQAKDIIVVTNGLTHVEALLKKGIKTIMLGGQVKENTLATIGSSAMEILRRYCFDKAFIGMNGLDIELGLTTPDEQEALVKQTAMSLANQSFVLIDHSKFNKVYFARVPLLESTTIITSEKALNQESLKEYQQKYHFIGGTLLEHHHHHH | soluble
SNAYTDESGLSELVNAAGEKLQDLELMGQKNAVRDFFKELIADSGKVAYGESQVRANLEINSVDVLLLSEDLRAERVTTKCSVCGYENKWTRRWKPGEPAPAAGNCPKCGSSLEVTDVTDIVDEFSELADKSNAKVVFVSTDFDEGSQLMNAFGGIAAILRYNTGV | soluble
MSLESSDDAPLPTDVPKDAAEALVCFLTQHVRALMSPHADPVPSCPRCGGTQIHKKGYAPLQTGPLPTYQCEGCDHYFSRLSGTPLSGHRIRRSAEELITMLPQAIGCPEAARRLGVMERTIRNTVRMFRRWVLELDPSGHHERHIRLGGRFTAVRDQAPPVVDEQIAYEDVALTAKLLEDFETIHSNKHFPMPDCPACGADRLVTKGTFSGFARFKCASCGKQFNRRTGTPFTRNRKVYERQRALIRYLGLPLSITQLAEIVGGDHGNVARLIREFRERCDQLDPTGQLSHRIRAGARPAEDTPCIQCGARHVRFDVRGITPGKCAVCGRLISMRRAIIERDGVLEVGPWQWAEQLQQEGHHHHHH | not soluble
MGSDKIHHHHHHMRIAVIGGGASGMVTAYLLDKQGHHITVFERQPMLGGHIRTLNKNVKPNQSDCNEMLESGVLEFPTVFHNFVALMQELGVELEPIRVGSALFPKDGSPFFSKVTNENNYTGIQRFIEYLRFDTIHTRSLGLWLKTRFAQMEDFYNRPLSQYVNNQSISNTWLKLLTMYSYSMPFELIDNFPAEMGIPMLRDYLAVKWLRIKGGVYSYIEKILERFQGEVLLNVEIVNISRSPDGVIIQRSHGEIQEFDKVVFATPPDQVIALLADPTEAEIKRFSDWKANYATTTIHTDIFMYDHHHIHHPSEFDFFQTDTQWGYNSCLNQLCGISSPQHYFLSFQLEELIAKDRIIHTQEHHTPLYTTESFRYRDEVVATNGENNTYYAGAYLGDGLHEGAIASAFRVAQLIGSPLAVSISGFNDRNADTVEIAADTAGIGKYLTHPRFHRS | not soluble
MGSDKIHHHHHHMSRILITCAITGSIHTPSMSPYLPVTADEITQQAVDAADAGAAILHLHARDPETGRPSAEIGHFMGFLPRIKQSCEAVLNLSTGGSAVMTLDQRLAAPKQAAPEMCSLNMGTMNFALYPAADRISDWKHDWEEPFLRGSDDLVFKNTPRDMALILGEMGTKRGARFEFEVYDVGHLYMLRHFVDRGLVQGPLFIQFVFGVLGGIGPDPENLMHMKTVADKLFGQDYLFSVLAAGRHQIPLVTMAAAMGGHVRVGLEDSLMISRGVLARSNAEQVRKIRRIVEDLGREVASPGEARAMLGLKGADRTAF | not soluble
MVSRKRRAAQIESSRKGVASIRARCDMEASCSSSQENEASRASTSQCSSPKNLKMENVTILPKTLKLIHDDPKSQVIVSIQFEIEDTKKKISAAILNFNISKKANNAIRSERKRIVATILKTRKHVERFRRLWKKEKKKKEHSEILYKKSQLSKQETIAKFPPMFR | not soluble
MENVEKRLIQLFTTYLNKAKHHMQGGSDMPNELVIGLHCRGEFESHRSWMQPRVQRGLEERMLFSSHKRAQIYKEAATSSLVAASSAPGEVREG | soluble
MKKIAIIGGGIIGMTLANYLDPQKFDITVYDEGLGQATKASAGIISPWLSKRRNKKWYQLAREGAALFPKLVKDFQLTEDIYRQSGTVILRPAAALADLAHLAEERKQTAPEIGEITMLSAVQTAKFLPLLKETPSLFISGGGRLDGPAYLNHLQKRAEAKGVTFCSQRAHFRQLNQGWEIVTNSEKKSVDFLALTPGPHLKELLTTLNLSVDIRPQKGQLLVFETPFTNSQQWPVAMLDGEADLIPFNQGKILLGATHENEQAWDLEETVSAFQQLTSGTAPFLKEAEQLFKQPMHYRVGTRAYTSDFAPFFGPLPEMPHLVVASGLGSSGLTTGPFIGYQLAEYFNTGAFKGELYQKPLSQYVKNNPSLLEHHHHHH | soluble
MEINENPTSFKGFKILQLSDLHNKSFGNNNNRLVKKIIGENPDIIVMTGDMVNAKDNDFEVFINLAEQISKSFDVYYIVGNHEQDLNEDKRKILMDKLSEIGIRVLDNEKVTISRGAESINLYGLWFNLRYYKDLKNEYTKDVFFGTKQIQSILGDLDTDSYNILLTHNPLYADTYSNWGADLTLSGHIHGGMIRIPFVGGLLSPEREFFPEYDAGKYQVNGKILIVNRGLGNGDFGIRVFNPPEISVIMLSNLEHHHHHH | not soluble
MNLSNHFLVAMPDMEDAFFSQSVVYICKHDEDGALGIAINKPSPITMDMIFSATGKNIPFRMQHDSVMMGGPVQVERGYVVHTPIGNWQSSIGVSDNIALTSSRDVIENISREGAVDKILISIGYSSWGKGQLERELADNAWLTVPADEHILFDIPYEHRYAAAFAKLGIDPLALFSGAGHALEHHHHHH | soluble
MLLVSDIQTIQPSLNSVNEGGQKIKNEAEPEFASRLETELKELNTQWDHMCQQLEHHHHHH | not soluble
GSHMEKRTPHTRLSQVKKLVNAGQVRTTRSALLNADELGLDFDGMCNVIIGLSESDFYKSMTTYSDHTIWQDVYRPRLVTGQVYLKITVIHDVLIVSFKEK | soluble
MGSDKIHHHHHHMQKLMHCSIMDLRLLVAVADAGNMSKGGAVCFLAPSTASLRIKHLEAIVGTRLFRREARGVSLTRAGQIMVDHSRRCLTEIEQMQASLTPFSEDVHAQLVLYANSSAIASFLPGDLQGFLQSHPKARITLEEHLSRDVLVAVVEGRADIGILTKDEPHPDLVYFPYHEDEIVLLLAETQPWTKTEPVAFLDCLSFPFVSQQNGSAIHSFLLAKASEQGRRVDVRIQVAGFAAVASMVRSGVGVAIVPRSALAAINVEGLRVVALSDAWARRTLSLCVRRDVLGSRNYVTALVDVLRQSGDQAGVADSA | not soluble
MSFAQQKLSELAVSIPGATKIFREYDLDFCCGGSVLLEVAAQQKNLNLAEIEKRLTDLQQSKAENNDKDWTSASYAEMIDHIITRFHNRHREQLPELITLAEKVENIHGDRDDCPIGVVAQLEKIYAELSQHLMKEEQILFPMIKMGNYAMASMPIRVMEMEHDEAGQDVEVIKSLTNNCTPPADACFSWKALYSGINEFIDDLMHHIHLENNILFPRVLNEK | not soluble

— the DeepSol protein solubility set
